Consider four substances from patent US20090298769A1.

The target of assay [1] is αvβ3 integrin, wild type, on mouse lung endothelial cells (mouse) (UniProt P43406). Nature of the assay: flow cytometry, FITC-fibrinogen on WT mouse lung EC. (Flow cytometry measures light scatter and fluorescence of single cells or particles in a stream.)
For assay [2], the target named is DiYF β3 integrin (αvβ3 with β3 Tyr747Phe and Tyr759Phe) on lung endothelial cells of knock-in mice (mouse) (UniProt P43406). Nature of the assay: flow cytometry, FITC-fibrinogen on DiYF mouse lung EC.
In assay [3] the target is αvβ3 integrin on human endothelial cells (HUVEC; vessels of human prostate tissue) (human) (UniProt P06756). Nature of the assay: flow cytometry, WOW-1 Fab on HUVEC.
Assay [4] has the same target. Kind of assay: flow cytometry (FACS), WOW-1 Fab on HUVEC.
The target of assay [5] is αvβ3 integrin, wild type, on mouse lung endothelial cells (mouse) (UniProt P43406). Kind of assay: flow cytometry, WOW-1 Fab on WT mouse lung EC.
Assay [6] concerns the target αvβ3 integrin on human endothelial cells (HUVEC; vessels of human prostate tissue) (human) (UniProt P06756). Nature of the assay: immunohistochemistry of human prostate tissue.
Assay [7] concerns the target DiYF β3 integrin (αvβ3 with β3 Tyr747Phe and Tyr759Phe) on lung endothelial cells of knock-in mice (mouse) (UniProt P43406). Nature of the assay: flow cytometry, WOW-1 Fab on DiYF mouse lung EC.
Assay [8] addresses αvβ3 integrin on human endothelial cells (HUVEC; vessels of human prostate tissue) (human) (UniProt P06756). Kind of assay: flow cytometry, WOW-1 Fab on HUVEC transfected with dominant negative c-Src.
For assay [9], the target named is DiYF β3 integrin (αvβ3 with β3 Tyr747Phe and Tyr759Phe) on lung endothelial cells of knock-in mice (mouse) (UniProt P43406). Nature of the assay: cell-based or functional assay.
Assay [10] deals with VEGFR-2 of mouse lung endothelial cells (mouse) (UniProt P35918). Kind of assay: cell-based or functional assay.
VEGFR-2 of mouse lung endothelial cells (mouse), sequence (P35918 20-1345): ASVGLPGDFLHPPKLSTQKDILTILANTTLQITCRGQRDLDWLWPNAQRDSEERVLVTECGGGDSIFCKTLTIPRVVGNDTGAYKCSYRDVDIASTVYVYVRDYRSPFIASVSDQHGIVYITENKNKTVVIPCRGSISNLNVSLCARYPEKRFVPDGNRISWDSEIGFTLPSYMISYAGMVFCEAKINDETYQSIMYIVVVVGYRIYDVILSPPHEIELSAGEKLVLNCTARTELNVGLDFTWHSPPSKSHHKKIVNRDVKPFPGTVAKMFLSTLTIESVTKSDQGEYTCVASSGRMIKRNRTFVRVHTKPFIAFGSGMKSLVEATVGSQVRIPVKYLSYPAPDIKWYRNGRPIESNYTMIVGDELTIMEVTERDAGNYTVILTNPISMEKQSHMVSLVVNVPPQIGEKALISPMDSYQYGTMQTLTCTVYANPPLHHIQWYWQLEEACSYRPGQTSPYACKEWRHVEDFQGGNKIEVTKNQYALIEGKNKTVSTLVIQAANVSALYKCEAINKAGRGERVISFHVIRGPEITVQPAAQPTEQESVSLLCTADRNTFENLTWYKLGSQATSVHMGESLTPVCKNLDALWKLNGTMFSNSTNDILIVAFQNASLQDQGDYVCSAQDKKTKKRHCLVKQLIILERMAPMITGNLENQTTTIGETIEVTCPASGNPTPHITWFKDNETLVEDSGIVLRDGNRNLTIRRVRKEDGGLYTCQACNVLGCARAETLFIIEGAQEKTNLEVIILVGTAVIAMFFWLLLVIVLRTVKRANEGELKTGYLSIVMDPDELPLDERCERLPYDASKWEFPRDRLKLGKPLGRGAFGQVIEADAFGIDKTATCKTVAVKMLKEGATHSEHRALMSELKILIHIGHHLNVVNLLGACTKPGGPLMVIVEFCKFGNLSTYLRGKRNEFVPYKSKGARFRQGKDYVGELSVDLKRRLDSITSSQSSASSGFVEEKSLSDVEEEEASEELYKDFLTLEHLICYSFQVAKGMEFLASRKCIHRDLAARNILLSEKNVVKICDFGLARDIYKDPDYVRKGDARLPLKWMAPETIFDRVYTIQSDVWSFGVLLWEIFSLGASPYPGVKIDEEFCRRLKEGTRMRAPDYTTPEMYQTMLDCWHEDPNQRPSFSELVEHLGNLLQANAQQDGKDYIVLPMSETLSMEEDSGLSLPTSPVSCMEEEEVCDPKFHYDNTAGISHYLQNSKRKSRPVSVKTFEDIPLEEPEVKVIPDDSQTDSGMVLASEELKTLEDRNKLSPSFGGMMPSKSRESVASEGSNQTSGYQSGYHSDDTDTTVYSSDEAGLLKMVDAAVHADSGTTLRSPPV

αvβ3 integrin on human endothelial cells (HUVEC; vessels of human prostate tissue) (human), sequence (P06756 31-1048, chain 1 of 2): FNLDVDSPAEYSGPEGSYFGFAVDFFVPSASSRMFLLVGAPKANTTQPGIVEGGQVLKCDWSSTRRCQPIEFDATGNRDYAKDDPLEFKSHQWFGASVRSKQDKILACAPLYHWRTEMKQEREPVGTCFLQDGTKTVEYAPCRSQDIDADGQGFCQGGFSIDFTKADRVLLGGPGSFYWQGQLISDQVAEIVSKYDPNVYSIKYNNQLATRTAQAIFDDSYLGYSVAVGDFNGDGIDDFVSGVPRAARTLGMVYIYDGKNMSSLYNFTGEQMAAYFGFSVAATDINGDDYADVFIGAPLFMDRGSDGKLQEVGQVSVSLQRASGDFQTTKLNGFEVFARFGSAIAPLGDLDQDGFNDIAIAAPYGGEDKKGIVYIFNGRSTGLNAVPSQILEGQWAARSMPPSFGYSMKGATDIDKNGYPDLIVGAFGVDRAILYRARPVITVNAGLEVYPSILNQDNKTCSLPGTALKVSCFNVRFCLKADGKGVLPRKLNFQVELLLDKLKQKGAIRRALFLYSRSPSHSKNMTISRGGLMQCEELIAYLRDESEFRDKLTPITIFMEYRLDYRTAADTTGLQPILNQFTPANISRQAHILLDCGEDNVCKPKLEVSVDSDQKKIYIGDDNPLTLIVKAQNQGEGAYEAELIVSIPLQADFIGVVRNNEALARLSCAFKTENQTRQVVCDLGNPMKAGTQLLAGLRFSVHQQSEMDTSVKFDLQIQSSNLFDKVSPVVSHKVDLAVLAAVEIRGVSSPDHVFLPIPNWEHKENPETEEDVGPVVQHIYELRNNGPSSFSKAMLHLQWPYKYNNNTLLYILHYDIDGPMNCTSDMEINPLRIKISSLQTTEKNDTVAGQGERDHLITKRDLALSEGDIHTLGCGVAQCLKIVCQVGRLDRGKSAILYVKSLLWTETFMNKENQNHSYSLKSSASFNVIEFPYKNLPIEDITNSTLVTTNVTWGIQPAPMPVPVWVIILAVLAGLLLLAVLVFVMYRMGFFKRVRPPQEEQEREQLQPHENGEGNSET
αvβ3 integrin on human endothelial cells (HUVEC; vessels of human prostate tissue) (human), sequence (P05106 27-788, chain 2 of 2, further chain): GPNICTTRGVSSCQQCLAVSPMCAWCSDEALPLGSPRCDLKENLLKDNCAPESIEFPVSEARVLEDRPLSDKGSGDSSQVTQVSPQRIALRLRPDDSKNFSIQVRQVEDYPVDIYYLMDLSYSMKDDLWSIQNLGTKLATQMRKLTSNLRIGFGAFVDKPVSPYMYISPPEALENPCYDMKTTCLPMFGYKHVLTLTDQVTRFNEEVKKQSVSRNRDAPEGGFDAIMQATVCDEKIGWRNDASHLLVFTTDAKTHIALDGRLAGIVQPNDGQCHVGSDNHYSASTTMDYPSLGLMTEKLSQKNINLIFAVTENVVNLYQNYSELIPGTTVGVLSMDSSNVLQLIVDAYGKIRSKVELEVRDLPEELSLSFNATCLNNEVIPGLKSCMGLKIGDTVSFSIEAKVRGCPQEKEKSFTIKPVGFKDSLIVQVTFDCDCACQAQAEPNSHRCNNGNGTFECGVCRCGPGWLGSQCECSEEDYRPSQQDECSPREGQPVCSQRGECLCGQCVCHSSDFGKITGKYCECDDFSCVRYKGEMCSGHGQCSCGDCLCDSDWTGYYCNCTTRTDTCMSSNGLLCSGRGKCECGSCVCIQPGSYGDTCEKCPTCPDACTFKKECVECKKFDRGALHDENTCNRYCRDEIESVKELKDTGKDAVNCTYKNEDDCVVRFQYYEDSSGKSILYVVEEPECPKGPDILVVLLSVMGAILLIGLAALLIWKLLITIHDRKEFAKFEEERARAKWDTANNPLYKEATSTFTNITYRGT
DiYF β3 integrin (αvβ3 with β3 Tyr747Phe and Tyr759Phe) on lung endothelial cells of knock-in mice (mouse), sequence (P43406 31-1044, chain 1 of 2): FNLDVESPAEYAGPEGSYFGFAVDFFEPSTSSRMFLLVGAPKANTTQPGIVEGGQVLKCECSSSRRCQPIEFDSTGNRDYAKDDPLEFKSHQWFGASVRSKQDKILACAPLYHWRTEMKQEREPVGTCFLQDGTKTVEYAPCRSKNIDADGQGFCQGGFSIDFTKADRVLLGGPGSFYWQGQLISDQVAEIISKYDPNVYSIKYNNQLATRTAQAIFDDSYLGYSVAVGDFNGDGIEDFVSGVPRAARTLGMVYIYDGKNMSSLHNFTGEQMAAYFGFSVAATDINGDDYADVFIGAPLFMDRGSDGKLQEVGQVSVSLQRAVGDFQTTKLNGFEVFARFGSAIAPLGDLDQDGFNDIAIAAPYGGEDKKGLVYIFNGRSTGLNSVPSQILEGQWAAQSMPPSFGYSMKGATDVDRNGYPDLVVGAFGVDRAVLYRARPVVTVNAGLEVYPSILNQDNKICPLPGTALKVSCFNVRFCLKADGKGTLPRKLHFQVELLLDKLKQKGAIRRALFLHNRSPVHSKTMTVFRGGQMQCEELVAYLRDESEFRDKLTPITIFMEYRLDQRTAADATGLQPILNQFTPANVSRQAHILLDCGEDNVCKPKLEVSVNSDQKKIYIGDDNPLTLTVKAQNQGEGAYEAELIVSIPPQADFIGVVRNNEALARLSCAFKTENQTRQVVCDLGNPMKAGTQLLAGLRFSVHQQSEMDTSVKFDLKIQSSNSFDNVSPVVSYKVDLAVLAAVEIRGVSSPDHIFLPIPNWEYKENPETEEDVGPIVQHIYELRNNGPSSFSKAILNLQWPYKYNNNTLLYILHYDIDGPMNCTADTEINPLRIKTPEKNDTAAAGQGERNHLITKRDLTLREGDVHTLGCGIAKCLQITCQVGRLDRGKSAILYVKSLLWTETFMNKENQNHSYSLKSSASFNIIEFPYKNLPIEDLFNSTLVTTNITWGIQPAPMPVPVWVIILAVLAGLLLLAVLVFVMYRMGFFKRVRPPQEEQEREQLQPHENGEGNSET
DiYF β3 integrin (αvβ3 with β3 Tyr747Phe and Tyr759Phe) on lung endothelial cells of knock-in mice (mouse), sequence (O54890 26-787 Y772F/Y784F, chain 2 of 2, further chain): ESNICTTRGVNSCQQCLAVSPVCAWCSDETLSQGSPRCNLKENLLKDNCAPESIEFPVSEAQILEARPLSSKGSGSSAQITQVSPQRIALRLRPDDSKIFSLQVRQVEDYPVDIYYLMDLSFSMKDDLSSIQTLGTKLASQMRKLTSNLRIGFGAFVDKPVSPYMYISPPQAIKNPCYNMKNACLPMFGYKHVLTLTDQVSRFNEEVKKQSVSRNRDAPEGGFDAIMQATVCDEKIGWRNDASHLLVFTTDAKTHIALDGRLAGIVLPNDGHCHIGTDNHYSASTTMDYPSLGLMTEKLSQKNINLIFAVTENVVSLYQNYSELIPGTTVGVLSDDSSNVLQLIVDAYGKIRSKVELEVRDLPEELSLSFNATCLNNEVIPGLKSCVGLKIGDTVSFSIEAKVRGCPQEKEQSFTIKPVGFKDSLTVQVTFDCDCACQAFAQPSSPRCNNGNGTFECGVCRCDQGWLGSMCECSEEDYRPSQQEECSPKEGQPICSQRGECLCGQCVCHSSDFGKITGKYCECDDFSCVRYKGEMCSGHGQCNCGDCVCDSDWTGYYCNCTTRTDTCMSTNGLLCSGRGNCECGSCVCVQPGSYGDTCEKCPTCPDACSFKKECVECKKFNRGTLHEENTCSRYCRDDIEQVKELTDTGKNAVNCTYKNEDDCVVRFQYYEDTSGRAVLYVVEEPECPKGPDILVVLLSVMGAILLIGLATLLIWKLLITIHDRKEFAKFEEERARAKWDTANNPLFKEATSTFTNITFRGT

On to FITC-labeled fibrinogen (ligand), for which the fold increase of binding on MnCl2 stimulation was more than 40 fold in assay [1] and 17 fold in assay [2]. Further, the fold increase of binding on VEGF stimulation in assay [1] was more than 6 fold; in assay [2], 3 fold.

As to WOW-1 Fab, the fold increase of binding on VEGF stimulation in assay [3] was found to be 6 fold; in assay [5], 9 fold; in assay [7] it was 3.5 fold. This substance showed a fold increase of binding on VEGF-A165 stimulation in [4] of 6 fold. The fold increase of binding on MnCl2 stimulation was found to be 30 fold in [5] and 14 fold in assay [7]. This substance returned a fold increase of WOW-1 density, prostate carcinoma against normal prostate tissue in assay [6] of 2.7 fold. The fold reduction of VEGF-triggered αvβ3 activation (WOW-1 binding) by dominant negative c-Src in assay [8] was more than 2 fold.

Take vitronectin (ligand): in assay [9], the fold decrease in cell adhesion to vitronectin, DiYF EC against WT EC worked out at 2 fold.

In [10], VEGF-A165 (ligand) came in with a VEGFR-2 phosphorylation in DiYF EC of 2.5 fold and a VEGFR-2 phosphorylation in WT EC of 6 fold.
